# In the Human Domainome abundance scans (Beltran et al. 2025):
# ± gives the uncertainty stated by the source.
# B1: Ankyrin-1, residues 1405 to 1484; numbered along this chain, P16157 (parent)
# chain: MKMAVISEHLGLSWAELARELQFSVEDINRIRVENPNSLLEQSVALLNLWVIREGQNANMENLYTALQSIDRGEIVNMLE
# Variants of: B1
# Experiment: abundance fitness (aPCA) (normalised: wild type 0, dead -1); higher = more abundant; growth selection in yeast, the domain comes from the species named
# Settings: Homo sapiens
row,Variant,abundance fitness
1,MKMAVISEHLGLSWAELARELQFHVEDINRIRVENPNSLLEQSVALLNLWVIREGQNANMENLYTALQSIDRGEIVNMLE [S24H],-0.429 ± 0.18
2,MKMAVISEHLGLSWAELARELQFSVEDINRIRVENPNSLLEQSVALLNLWVIREGQNANMENDYTALQSIDRGEIVNMLE [L63D],-0.763 ± 0.38
3,MKMAVISEHLGLSWAELARELQFSVEDINRIRVENPNSLLEQSVALLNLWVIREGQNANHENLYTALQSIDRGEIVNMLE [M60H],0.243 ± 0.24
4,MKMAVISEHLGLSWAELARELQFSVEDINRIRVENPNSLLEQSVALLNLWVIREGQNANRENLYTALQSIDRGEIVNMLE [M60R],-0.704 ± 0.15
5,MKMAVISEHLGLSWAELARELQFSVEDINRIRVENPNSLLEQSVALLNLWVICEGQNANMENLYTALQSIDRGEIVNMLE [R53C],-0.797 ± 0.2
6,MKMAVISEHLGLSWAELARELQFSVEDINRIRVENPNSLLEQSVALLNLWVINEGQNANMENLYTALQSIDRGEIVNMLE [R53N],-0.31 ± 0.26
7,MKMAVISEHLGLSWAELARELQFSVEDINRIRVENPNSLLEQSVALLNLWVIREGQNANMENLYTALQSIDRGAIVNMLE [E74A],-0.364 ± 0.095
8,MKMAVISEHLGLSWAELARELQFSVEDINRIRVENPNSLLEQSVALLNLWVIREGQNANMENLYTALQSIDRGVIVNMLE [E74V],-0.839 ± 0.15
9,MKMAVISEHLGLSWAELARELQFSVEDINRIRVENPNSLLEQSVALLNLWVIREGQNANMENLYTALQSIDRGLIVNMLE [E74L],-0.562 ± 0.11
10,MKMAVISEHLGLSWAELARELQFSVEDINRIRVENPNSLLEQSVALLNLWVIREGQNANMENLYTRLQSIDRGEIVNMLE [A66R],-0.746 ± 0.1
11,MKMAVISEHLGLSWAELARELQFSVEDINRIRVENPNSLLEQSVALLNLWVIREGQNANMENLYTALQSIDRGEIVNMLP [E80P],0.049 ± 0.21
12,MKMAVISEHLGLSWAELARELQFSVEDINRIRVENPNSLLEQSVALLNLWVIREGMNANMENLYTALQSIDRGEIVNMLE [Q56M],-0.061 ± 0.11
13,MKMAVISEHLGLSWAELARELQFSVEDINRIRVENPNSLLEQSVALLNLWVIREGANANMENLYTALQSIDRGEIVNMLE [Q56A],-0.113 ± 0.091
14,MKMAVISEHLGLSMAELARELQFSVEDINRIRVENPNSLLEQSVALLNLWVIREGQNANMENLYTALQSIDRGEIVNMLE [W14M],-0.454 ± 0.13
15,MKMAVISEHLGLSHAELARELQFSVEDINRIRVENPNSLLEQSVALLNLWVIREGQNANMENLYTALQSIDRGEIVNMLE [W14H],-0.873 ± 0.29
16,MKMAVISEHLGLSWAELARELQFSVEDISRIRVENPNSLLEQSVALLNLWVIREGQNANMENLYTALQSIDRGEIVNMLE [N29S],-0.156 ± 0.062
17,MKMAVISEHLGLSWAELARELQFSVEDINRIRVENPNSLLEQSVALINLWVIREGQNANMENLYTALQSIDRGEIVNMLE [L47I],-0.256 ± 0.2
18,MKMAVISEHLGLSWAELARELQFSVEDINRIRVENPNSLLEQSVALLNLWVIREGQNRNMENLYTALQSIDRGEIVNMLE [A58R],-0.049 ± 0.065
19,MKMAVISEHLGLSWAELARELQFSVEDINRIRVENPNRLLEQSVALLNLWVIREGQNANMENLYTALQSIDRGEIVNMLE [S38R],-0.478 ± 0.08
20,MKMAVISEHLGLSWAELARELQFSVEDINRIRVENPNSLLEQVVALLNLWVIREGQNANMENLYTALQSIDRGEIVNMLE [S43V],-0.757 ± 0.11
21,MKMAVISEHLGLSWAELARELQFSVEDINRIRVENPNSLLEQYVALLNLWVIREGQNANMENLYTALQSIDRGEIVNMLE [S43Y],-0.857 ± 0.16
22,MKMAVISEHLGLSWAELARELQFSVGDINRIRVENPNSLLEQSVALLNLWVIREGQNANMENLYTALQSIDRGEIVNMLE [E26G],-0.127 ± 0.039
23,MKMAVISEHLGLSWAELARELQFSVRDINRIRVENPNSLLEQSVALLNLWVIREGQNANMENLYTALQSIDRGEIVNMLE [E26R],-0.104 ± 0.051

row,Variant,abundance fitness
1,MKMAVISEHLGLSWAELARELQFSVFDINRIRVENPNSLLEQSVALLNLWVIREGQNANMENLYTALQSIDRGEIVNMLE [E26F],-0.369 ± 0.14
2,MKMAVISEHLGLSWAELARELQFSVEDINRIRVENPNSLLEQSVALLNMWVIREGQNANMENLYTALQSIDRGEIVNMLE [L49M],0.061 ± 0.047
3,MKMAVISEHLGLNWAELARELQFSVEDINRIRVENPNSLLEQSVALLNLWVIREGQNANMENLYTALQSIDRGEIVNMLE [S13N],-0.404 ± 0.18
4,MKMAVISEHLGLIWAELARELQFSVEDINRIRVENPNSLLEQSVALLNLWVIREGQNANMENLYTALQSIDRGEIVNMLE [S13I],-0.815 ± 0.3
5,MKMAVISPHLGLSWAELARELQFSVEDINRIRVENPNSLLEQSVALLNLWVIREGQNANMENLYTALQSIDRGEIVNMLE [E8P],-0.24 ± 0.1
6,MKMAVISERLGLSWAELARELQFSVEDINRIRVENPNSLLEQSVALLNLWVIREGQNANMENLYTALQSIDRGEIVNMLE [H9R],-0.33 ± 0.083
7,MKMAVISEELGLSWAELARELQFSVEDINRIRVENPNSLLEQSVALLNLWVIREGQNANMENLYTALQSIDRGEIVNMLE [H9E],-0.148 ± 0.16
8,MKMAVISEHLGLSWHELARELQFSVEDINRIRVENPNSLLEQSVALLNLWVIREGQNANMENLYTALQSIDRGEIVNMLE [A15H],-0.206 ± 0.21
9,MKMAVISEHLGLSWAELARELQFSVEDINRIRVENPNSLLEQSVALLNLFVIREGQNANMENLYTALQSIDRGEIVNMLE [W50F],-0.713 ± 0.28
10,MKMAVISEHLGLSWAELARELQFSVEDINRIRVENKNSLLEQSVALLNLWVIREGQNANMENLYTALQSIDRGEIVNMLE [P36K],-0.267 ± 0.16
11,MKMAVISEHLGLSWAELARELQFSVEDINRIRVENPNSLLWQSVALLNLWVIREGQNANMENLYTALQSIDRGEIVNMLE [E41W],-0.563 ± 0.1
12,MKMAVISEHLGLSWAELAREGQFSVEDINRIRVENPNSLLEQSVALLNLWVIREGQNANMENLYTALQSIDRGEIVNMLE [L21G],-0.965 ± 0.17
13,MKMAVISEHLGLSWAELARELQFSVEDINRIRVENPNSLLEQSVALLNLWVIRCGQNANMENLYTALQSIDRGEIVNMLE [E54C],-0.198 ± 0.089
14,MKMAVISEHLGLSWAELARELQFSVEDINRIRVENPNSLLERSVALLNLWVIREGQNANMENLYTALQSIDRGEIVNMLE [Q42R],-0.152 ± 0.068
15,MKMAVISEHLGLSWAELARELQFSVEDINRIRVENPNSLLETSVALLNLWVIREGQNANMENLYTALQSIDRGEIVNMLE [Q42T],-0.723 ± 0.2
16,MKMAVISEHLGLSWAELARELQFSVEDINRIRVENPNSLLEQSVALLNLWVIREGQNANMENLYHALQSIDRGEIVNMLE [T65H],-0.05 ± 0.1
17,MKMAVISEHLGLSWAELARELQFSVEDINRIRVENPNSLLEQSVALLNLWVIREGQNANMENLYRALQSIDRGEIVNMLE [T65R],-0.04 ± 0.044
18,MKMAVISEHLGLSWAELARELQFSVEDINRIRVENPNSLLEQSVALLNLWVIREGQNANMENLYWALQSIDRGEIVNMLE [T65W],-0.291 ± 0.083
19,MKMAVISEHLGLSWAELARELQFSVEDINRIRVENPNSLLEQSVALLNLWVIREGQNANMENLYIALQSIDRGEIVNMLE [T65I],-0.209 ± 0.14
20,MKMAVISEHLGLSWAELARELQFSVEDINRIRVENPNSLLEQSVALLNLWVIRERQNANMENLYTALQSIDRGEIVNMLE [G55R],-0.394 ± 0.078
21,MKMAVISEHLGLSWAELARELQFSVEDINRIRVENPNSLLEQSVALLNLWVIREGQNANMENLYTALQSIDRGEIVNMYE [L79Y],-0.319 ± 0.14
22,MKMAVISEHLGLSWAELARELQFSVEDINRIRVENPNSLLEQSVALLNLWVIREGQNANMENLYTALQSIDRGEIVNMPE [L79P],-0.3 ± 0.12
23,MKMAVISEHLGLSWAELARELQFSVEDINRIRVENPNSLLEQSVALLNLWVIREGQPANMENLYTALQSIDRGEIVNMLE [N57P],-0.061 ± 0.12

row,Variant,abundance fitness
1,MKMAVISEHLGLSWAELARELQFSVEDINRIRVENPNSLLEQSVALLNLWVIREGQNANMENLYTALQSIDRVEIVNMLE [G73V],-0.172 ± 0.038
2,MKMAVISEHLGLSWAELARELQFSVEDINRIHVENPNSLLEQSVALLNLWVIREGQNANMENLYTALQSIDRGEIVNMLE [R32H],-0.294 ± 0.12
3,MKMAVISEHLGLSWAELARELQFSVEDINRIFVENPNSLLEQSVALLNLWVIREGQNANMENLYTALQSIDRGEIVNMLE [R32F],0.069 ± 0.098
4,MKMAVISEHLGLSWAELARELQFSVEDINRDRVENPNSLLEQSVALLNLWVIREGQNANMENLYTALQSIDRGEIVNMLE [I31D],-0.918 ± 0.32
5,MKMAVISEHLGLSWAELARELQFSVEDINRIRVENPNSLLEQSVALLNLWYIREGQNANMENLYTALQSIDRGEIVNMLE [V51Y],-0.023 ± 0.2
6,MKMEVISEHLGLSWAELARELQFSVEDINRIRVENPNSLLEQSVALLNLWVIREGQNANMENLYTALQSIDRGEIVNMLE [A4E],-0.142 ± 0.18
7,MKMAVISEHLGLSWAELARELQFSVEDINRIRVENPRSLLEQSVALLNLWVIREGQNANMENLYTALQSIDRGEIVNMLE [N37R],-0.186 ± 0.092
8,MKMAVISEHLGLSWAELARELQFSVEDINRIRVENPVSLLEQSVALLNLWVIREGQNANMENLYTALQSIDRGEIVNMLE [N37V],-0.277 ± 0.097
9,MKMAVISEHLGLSWAELARELQFSVEDINRIRVENPQSLLEQSVALLNLWVIREGQNANMENLYTALQSIDRGEIVNMLE [N37Q],-0.444 ± 0.35
10,MKMAVIYEHLGLSWAELARELQFSVEDINRIRVENPNSLLEQSVALLNLWVIREGQNANMENLYTALQSIDRGEIVNMLE [S7Y],-0.242 ± 0.14
11,MKMAVIEEHLGLSWAELARELQFSVEDINRIRVENPNSLLEQSVALLNLWVIREGQNANMENLYTALQSIDRGEIVNMLE [S7E],-0.261 ± 0.089
12,MKMAVISEHLGLSWAELLRELQFSVEDINRIRVENPNSLLEQSVALLNLWVIREGQNANMENLYTALQSIDRGEIVNMLE [A18L],-0.535 ± 0.078
13,MKMADISEHLGLSWAELARELQFSVEDINRIRVENPNSLLEQSVALLNLWVIREGQNANMENLYTALQSIDRGEIVNMLE [V5D],-0.605 ± 0.14
14,MKMAQISEHLGLSWAELARELQFSVEDINRIRVENPNSLLEQSVALLNLWVIREGQNANMENLYTALQSIDRGEIVNMLE [V5Q],-0.483 ± 0.16
15,MKMAEISEHLGLSWAELARELQFSVEDINRIRVENPNSLLEQSVALLNLWVIREGQNANMENLYTALQSIDRGEIVNMLE [V5E],-0.372 ± 0.096
16,MKMAVISEHLGLSWAELARELQFSVEDINRIRVENPNSLLEQSVALLGLWVIREGQNANMENLYTALQSIDRGEIVNMLE [N48G],-0.236 ± 0.055
17,MKMAVISEHLGLSWAELARELQFSVEDINRIRVENPNSLLEQSVALLPLWVIREGQNANMENLYTALQSIDRGEIVNMLE [N48P],-1.07 ± 0.34
18,MKMAVISEHLGLSWAELARDLQFSVEDINRIRVENPNSLLEQSVALLNLWVIREGQNANMENLYTALQSIDRGEIVNMLE [E20D],-0.508 ± 0.15
19,MKMAVISEHLGLSWAELARSLQFSVEDINRIRVENPNSLLEQSVALLNLWVIREGQNANMENLYTALQSIDRGEIVNMLE [E20S],-0.145 ± 0.049
20,MKMAVISEHLGLSWAELARRLQFSVEDINRIRVENPNSLLEQSVALLNLWVIREGQNANMENLYTALQSIDRGEIVNMLE [E20R],-0.127 ± 0.053
21,MKMAVISEHLGLSWAELARELQFSVEDINRIRVENPNSLLEQSVALLNLWVIREGQNANMENLYTALQAIDRGEIVNMLE [S69A],-0.045 ± 0.051
22,MKMAVISEHLGLSWAELARELQFSVEDINRIRVENPNSLLEQSVALLNLWVIREGQNANMENLYTALYSIDRGEIVNMLE [Q68Y],-0.202 ± 0.14
23,MKMAVISEHLGLSWAELARELGFSVEDINRIRVENPNSLLEQSVALLNLWVIREGQNANMENLYTALQSIDRGEIVNMLE [Q22G],-0.08 ± 0.05
